From patent EP4653461A1 (DE NOVO BIOTHERAPEUTICS CO., LTD., dated 2025)

Assays:
[1] = biological target: T1, 6506GJ130-1A: Human NKP46 Recombinant Protein (His) (human, UniProt O76036 22-258, limits assumed); assay: competition ELISA, NKp46-His coated; competitor 2-7 at 20 ug/ml
T1 construct: also called human NKp46 protein; not shown: His tag

[2] = biological target: T1, 6506GJ130-1A: Human NKP46 Recombinant …; assay: competition ELISA, NKp46-His coated; competitor 1-10 at 20 ug/ml
[3] = biological target: T1, 6506GJ130-1A: Human NKP46 Recombinant …; assay: competition ELISA, NKp46-His coated; competitor 2-10 at 20 ug/ml
[4] = biological target: T1, 6506GJ130-1A: Human NKP46 Recombinant …; assay: competition ELISA, NKp46-His coated; no competitor (Control)
[5] = biological target: T1, 6506GJ130-1A: Human NKP46 Recombinant …; assay: competition ELISA, NKp46-His coated; competitor 2-5 at 20 ug/ml
[6] = biological target: T1, 6506GJ130-1A: Human NKP46 Recombinant …; assay: competition ELISA, NKp46-His coated; competitor 1-8 at 20 ug/ml
[7] = biological target: T1, 6506GJ130-1A: Human NKP46 Recombinant …; assay: competition ELISA, NKp46-His coated; competitor 1-4-2 at 20 ug/ml
[8] = biological target: T1, 6506GJ130-1A: Human NKP46 Recombinant …; assay: competition ELISA, NKp46-His coated; competitor 2-3 at 20 ug/ml
[9] = biological target: T1, 6506GJ130-1A: Human NKP46 Recombinant …; assay: competition ELISA, NKp46-His coated; competitor 2-2 at 20 ug/ml
[10] = biological target: T1, 6506GJ130-1A: Human NKP46 Recombinant …; assay: competition ELISA, NKp46-His coated; competitor 2-1 at 20 ug/ml
[11] = biological target: T1, 6506GJ130-1A: Human NKP46 Recombinant …; assay: competition ELISA, NKp46-His coated; competitor 1-2 at 20 ug/ml
[12] = biological target: T1, 6506GJ130-1A: Human NKP46 Recombinant …; assay: SPR, Biacore 8K, antibody captured on Protein A chip, NKp46 as analyte

T1 sequence (O76036 22-258 limits assumed): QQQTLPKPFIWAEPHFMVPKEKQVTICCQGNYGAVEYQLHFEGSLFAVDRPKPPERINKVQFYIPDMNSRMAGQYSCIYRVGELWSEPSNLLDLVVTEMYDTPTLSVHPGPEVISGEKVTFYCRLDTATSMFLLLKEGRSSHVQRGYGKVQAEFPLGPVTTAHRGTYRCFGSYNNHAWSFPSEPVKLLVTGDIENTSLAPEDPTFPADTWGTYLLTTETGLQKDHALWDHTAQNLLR

Row | Binder | ELISA signal [1] | ELISA signal [2] | ELISA signal [3] | ELISA signal [4] | ELISA signal [5] | ELISA signal [6] | ELISA signal [7] | ELISA signal [8] | ELISA signal [9] | ELISA signal [10] | ELISA signal [11] | Kd [12] [nM] | koff [12] [s⁻¹] | kon [12] [M⁻¹ s⁻¹]
1 | u6506gj130-1-8 (1-8) (antibody, IgG4, V domains shown, Beacon screening clone; made as mouse/human chimeric IgG4) VH: QVQLQQPGAELVRPGTSVKLSCKASGYTFTSYWMHWVKQRPGQGLEWIGVIDPSDSYTNYNQKFKGKATLTVDTSSSTAYMQLSSLTSEDSAVYYCARSSSAYYSNYEAYWGQGTLVTVSA VL: QIVLTQSPAIMSASPGEKVTISCSASSSVGYMFWYQQKPGSSPKPWIYRTSNLASGVPARFSGSGSGTSYSLTISSMEAEDAATYYCQQYHSYPPMWTFGGGTKLEIK | 1.39 | 1.45 | 1.34 | 1.45 | 0.197 | 0.111 | 1.18 | 1.35 | 1.43 | 1.4 | 1.61 | 11 | 0.00866 | 790000
2 | 32C9F4 (2-2) (antibody, IgG4, V domains shown, Hybridoma clone; made as mouse/human chimeric IgG4) VH: QVQLQQPGAELVKPGASVKLSCKASGYTFTSYWMHWVKQRPGQGLEWIGMIHPNSGVTKYNEKFKSKATLTVDKSSSTAYMQLSSLTSEDSAVYFCAGDGRFAYWGQGTLVTVSA VL: DIQMTQSPSSLSASLGERVSLTCRASQDIGSSLNWLQQEPDGTIKRLIYATSSLDSGVPKRFSGSRSGSDYSLTISSLESEDFVDYYCLQYASSPWTFGGGTKLEIK | 0.098 | 0.159 | 0.096 | 1.34 | 1.2 | 1.37 | 0.931 | 0.092 | 0.093 | 0.241 | 1.05 | 1.03 | 0.000542 | 527000
3 | 8A10C11 (2-7) (antibody, IgG4, V domains shown, Hybridoma clone; made as mouse/human chimeric IgG4) VH: QVQLQQPGAELVKPGASVKLSCKASGFTFTNYWMHWVKQRPGQGLEWIGMIHPNSGSTNYNEKFKSKATLTVDKSSSTAYMQLSSLTSEDSAVYYCAGGGRLDYWGQGTTLTVSS VL: DIQMTQSPSSLSASLGERVSLTCRASQDIGSSLNWLQQEPDGTIKRLIYATSSLDSGVPKRFSGSRSGSDYSLTISSLESEDFVDYYCLQYASSPFTFGSGTKLEIK | 0.093 | 0.133 | 0.106 | 1.41 | 1.24 | 1.4 | 0.637 | 0.146 | 0.088 | 0.204 | 1.1 | 2.78 | 0.00142 | 511000
4 | 8D5A6C1 (2-10) (antibody, IgG4, V domains shown, Hybridoma clone; made as mouse/human chimeric IgG4) VH: QVQLQQPGAELVKPGASVRLSCKAFGYTFTSYWMHWVKQRPGQGLEWIGMIHPNSGVTKYNEKFKSKATLTVDKSSSTAYMQLSSLTSEDSAVYFCAGDGRFAYWGQGTLVTVSA VL: DIQMTQSPSSLSASLGERVSLTCRASQDIGNSLNWLQQEPDGTIKRLIYATSSLDSGVPKRFSGSRSGSDYSLTISSLESEDFVDYYCLQYASSPWTFGGGTKLEIK | 0.123 | 0.176 | 0.083 | 1.27 | 1.13 | 1.3 | 0.724 | 0.091 | 0.154 | 0.245 | 0.998 | 1.29 | 0.000615 | 476000
5 | 45A10D5 (2-1) (antibody, IgG4, V domains shown, Hybridoma clone; made as mouse/human chimeric IgG4) VH: QVQLQQPGAELVKPGASVKLSCKASGYTFTSYWMHWVKQRPGQGLEWIGMIHPNSGSTNYNEKFKSKATLTVDKSSSTAYMQLSSLTSEDSAVYYCVYDGRFAYWGQGTLVTVSA VL: DIQMTQSPSSLSASLGERVSLTCRASQDIGSSLNWLQQEPDGTIKRLIYATSSLDSGVPKRFSGSRSGSDYSLTISSLESEDFVDYYCLQYASSPFTFGSGTKLEIK | 0.077 | 0.087 | 0.1 | 1.63 | 1.32 | 1.6 | 0.658 | 0.093 | 0.087 | 0.097 | 1.12 | 30 | 0.0113 | 376000
6 | u6506gj130-1-10 (1-10) (antibody, IgG4, V domains shown, Beacon screening clone; made as mouse/human chimeric IgG4) VH: QVQLQQPGAELVKPGASVKLSCKASGYIFTSYWMHWVKQRPGQGLEWIGMIHPNSGSTNYNEKFKSKATLTVDKSSSTAYMQLSSLTSEDSAVYYCAREGNWARGYFEYWGQGTTLTVSS VL: DIKMTQSPSSMYASLGERVTITCKASQDINSYLSWFQQKPGKSPKTLIYRANRLVDGVPSRFSGSGSGQDYSLTISSLEYEDVGMYYCLQYDEFPYTFGGGTKLEIK | 0.08 | 0.095 | 0.097 | 1.6 | 1.44 | 1.71 | 0.895 | 0.092 | 0.086 | 0.121 | 1.04 | 9.34 | 0.00229 | 246000
7 | 21C9E9 (2-5) (antibody, IgG4, V domains shown, Hybridoma clone; made as mouse/human chimeric IgG4) VH: DVQLQESGPGLVKTSQSLSLTCSVTGYSITSDDYWNWIRQFPGNKLEWVGYISYDGSNNYNPSLKNRISITRDTSKNQFFLKLNSVTTEDTATYYCARLGYPAMDSWGQGTSVTVSS VL: DIKMTQSPSSMYASLGERVTITCKASQDINSYLSWFQQKPGKSPKTLIYRANRLVDGVPSRFSGSGSGQDYSLTISSLEFEDLGIYYCLQYDEFPWTFGGGTKLEIK | 1.33 | 1.4 | 1.3 | 1.31 | 0.201 | 1.29 | 0.612 | 1.27 | 1.28 | 1.28 | 1.3 | 4.96 | 0.000116 | 23400
8 | u6506gj130-1-4-vk2 (1-4-2) (antibody, IgG4, V domains shown, Beacon screening clone; made as mouse/human chimeric IgG4) VH: DVQLQQSVAELVRPGASVNLSCTASGFNIKNTYMHWVKQRPEQGLEWIGMIDPANGNTKYAPKFQGKATITADTSSNTAYLHLSSLTSEDTAIYYCARWAYDGYYESYFDYWGQGTTLTVSS VL: SIVMTQSPKFLLVSAGDRVTITCKASQSVSNDVAWYQQKPGQSPKLLIYYASNRYTGVPDRFTGSGYGTDFTFTISTVQAEDLAVYFCHQDYSSPFTFGSGTKLEIK | 0.686 | 0.662 | 0.691 | 1.44 | 0.852 | 1.24 | 0.082 | 0.785 | 0.829 | 0.764 | 0.1 | 18.3 | 0.0038 | 207000
9 | u6506gj130-1-2 (1-2) (antibody, IgG4, V domains shown, Beacon screening clone; made as mouse/human chimeric IgG4 (mouse variable regions, human constant region)) VH: EVQLQQSGPELVKPGASVKISCQASGYTFTDYYLNWVKQSHGKSLEWIGDIDPHNGGTSYNQKFKDKATLTVDKSSSTAYMELRSLTSEDSAVYYCARFPIYYSGSSPMDYWGQGTSVTVSS VL: DIQMTQSPASLSASVGETVTITCRTNENIFSYLAWYQQKQGKSPQLLVYNAKTLAEGVPSRFSGSASGTQFSLKINTLQPEDFGSYYCQHHYGTPYTFGGGTKLEII | 1.15 | 1.19 | 1.24 | 1.54 | 1.46 | 1.63 | 0.178 | 1.28 | 1.23 | 1.24 | 0.1 | 4.29 | 0.00012 | 27900
